Results as given in US20040259075A1.

Biological target: Env-CD4-CCR5 complex (Example II) (UniProt P01730)
Experiment: method not stated; reference is X5-Fab

Chain of Env-CD4-CCR5 complex (Example II) (P51681 whole entry, chain 2 of 2, other chains not shown): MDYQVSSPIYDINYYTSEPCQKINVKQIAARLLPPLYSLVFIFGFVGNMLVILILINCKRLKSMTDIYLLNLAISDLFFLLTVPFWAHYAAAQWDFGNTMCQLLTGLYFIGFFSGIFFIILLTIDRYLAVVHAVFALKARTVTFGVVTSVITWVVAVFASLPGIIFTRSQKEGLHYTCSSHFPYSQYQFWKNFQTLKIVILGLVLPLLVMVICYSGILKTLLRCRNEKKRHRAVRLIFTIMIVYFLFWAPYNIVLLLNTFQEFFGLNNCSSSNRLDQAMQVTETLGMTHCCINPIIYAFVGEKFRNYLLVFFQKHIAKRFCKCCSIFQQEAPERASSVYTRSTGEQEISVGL

B1: FabS (Fab, V domains shown)
VH: VQLLEQSGAEVKKPGSSVQVSCKASGGTFSMYGFNWVRQAPGHGLEWMGGIIPIFGTSNYAQKFRGRVTFTADQATSTAYMELTNLRSDDTAVYYCARDFGPDWEDGDSYDGSGRGFFDFWGQGTLVTVSS
VL: ELVLTQSPGTLSLSAGERATLSCRASQSVSSGSLAWYQQKPGQAPRLLIYGASTRATGIPDRFSGSGSGTDFTLTIGRLEPEDLAVYYCQQYGTSPYTFGQGTKLEIKR
  fold increased affinity compared to the original X5-Fab: 5 fold
